Here are results for four molecules from US20130280784A1, “ESCHERICHIA COLI EXPRESSION SYSTEM FOR PRODUCING MATURE HUMAN TYROSINASE AND A PRODUCING METHOD THEREOF” (PROVIDENCE UNIVERSITY, priority 2012, published 2013).

Data set [1] has as its target T1, tyrosinase of B16 mouse melanoma cells (Mus musculus, UniProt P11344).
T1 construct: tyrosinase of B16 mouse melanoma cells; host or cells: B16 mouse melanoma cells
T1 sequence (P11344 19-533): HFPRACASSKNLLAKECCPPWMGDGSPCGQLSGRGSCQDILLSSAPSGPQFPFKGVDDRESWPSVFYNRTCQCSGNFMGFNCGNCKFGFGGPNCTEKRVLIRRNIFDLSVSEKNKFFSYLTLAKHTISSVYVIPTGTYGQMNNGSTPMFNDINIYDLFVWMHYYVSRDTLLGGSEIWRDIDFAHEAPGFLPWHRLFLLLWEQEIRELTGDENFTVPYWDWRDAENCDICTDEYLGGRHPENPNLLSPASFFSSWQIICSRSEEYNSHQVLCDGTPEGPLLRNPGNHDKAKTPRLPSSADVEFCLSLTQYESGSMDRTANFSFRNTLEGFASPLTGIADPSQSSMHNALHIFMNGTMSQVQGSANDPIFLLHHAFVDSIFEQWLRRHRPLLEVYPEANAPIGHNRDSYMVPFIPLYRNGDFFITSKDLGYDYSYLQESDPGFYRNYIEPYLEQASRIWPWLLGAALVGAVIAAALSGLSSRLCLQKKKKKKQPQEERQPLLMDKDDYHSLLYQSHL
As to conditions: cited from earlier work.

The test system of data set [2] is tyrosinase isolated from Agaricus bisporus. The settings on record: cited from earlier work.
Data set [3] is described as follows: enzyme activity assay of refolded recombinant human tyrosinase with L-Dopa as enzyme substrate (A475). It counts as biochemical. As to conditions: for Specificity / Total enzyme activity: 10 L of the starting material, L-Dopa as enzyme substrate. The procedure:
In order to analyze the enzyme activity of the aforementioned refolded recombinant human tyrosinase, […] of 50 mM PBS buffer (pH 7.0), and […] crude extract containing refolded recombinant human tyrosinase were mixed and left standing for 5 minutes at 37° C. Subsequently, […] L-Dopa was added (to a final concentration of 3 mM) to the mixture as an enzyme substrate and reacted for 30 minutes at 37° C. The absorbance at A475 was measured using a spectrophotometer.
The final yield of the purification, the total amount of the proteins, the enzyme activity and the analysis of the specificity were summarized in Table 1. Table 1 summarizes the results of 10 L of the starting material, and L-Dopa was used as an enzyme substrate in the enzyme activity assay.

On to α-arbutin, for which, in data set [1], the inhibition of tyrosinase entry is “significantly inhibits”. In addition, the “inhibitory effects on tyrosinase” value in data set [2] is recorded as “does not exhibit any inhibitory effects”.

B1: recombinant human tyrosinase: mature human tyrosinase of 512 amino acids, about 57 kDa, expressed in E. coli BL21(DE3)/pET-23a(+)-RHT and refolded (protein, UniProt P14679 19-529, looked up)
Tyrosinase: HFPRACVSSKNLMEKECCPPWSGDRSPCGQLSGRGSCQNILLSNAPLGPQFPFTGVDDRESWPSVFYNRTCQCSGNFMGFNCGNCKFGFWGPNCTERRLLVRRNIFDLSAPEKDKFFAYLTLAKHTISSDYVIPIGTYGQMKNGSTPMFNDINIYDLFVWMHYYVSMDALLGGSEIWRDIDFAHEAPAFLPWHRLFLLRWEQEIQKLTGDENFTIPYWDWRDAEKCDICTDEYMGGQHPTNPNLLSPASFFSSWQIVCSRLEEYNSHQSLCNGTPEGPLRRNPGNHDKSRTPRLPSSADVEFCLSLTQYESGSMDKAANFSFRNTLEGFASPLTGIADASQSSMHNALHIYMNGTMSQVQGSANDPIFLLHHAFVDSIFEQWLRRHRPLQEVYPEANAPIGHNRESYMVPFIPLYRNGDFFISSKDLGYDYSYLQDSDPDSFQDYIKSYLEQASRIWSWLLGAAMVGAVLTALLAGLVSLLCRHKRKQLPEEKQPLLMEKEDYHSLYQSHL
On to B1, for which the results for the tyrosinase activity in data set [3] (after isolation from the crude extract using ion-exchange chromatography) and in data set [3] (by using gel filtration chromatography) were 15.5 units/mg and 57.7 units 1 mg, respectively.

B2: DEAE ion-exchange: recombinant human tyrosinase fractions after DEAE sepharose Fast Flow ion-exchange chromatography (protein, UniProt P14679 19-529, looked up)
Tyrosinase: HFPRACVSSKNLMEKECCPPWSGDRSPCGQLSGRGSCQNILLSNAPLGPQFPFTGVDDRESWPSVFYNRTCQCSGNFMGFNCGNCKFGFWGPNCTERRLLVRRNIFDLSAPEKDKFFAYLTLAKHTISSDYVIPIGTYGQMKNGSTPMFNDINIYDLFVWMHYYVSMDALLGGSEIWRDIDFAHEAPAFLPWHRLFLLRWEQEIQKLTGDENFTIPYWDWRDAEKCDICTDEYMGGQHPTNPNLLSPASFFSSWQIVCSRLEEYNSHQSLCNGTPEGPLRRNPGNHDKSRTPRLPSSADVEFCLSLTQYESGSMDKAANFSFRNTLEGFASPLTGIADASQSSMHNALHIYMNGTMSQVQGSANDPIFLLHHAFVDSIFEQWLRRHRPLQEVYPEANAPIGHNRESYMVPFIPLYRNGDFFISSKDLGYDYSYLQDSDPDSFQDYIKSYLEQASRIWSWLLGAAMVGAVLTALLAGLVSLLCRHKRKQLPEEKQPLLMEKEDYHSLYQSHL
In the case of B2, in data set [3], the Specificity worked out at 15.5 units/mg and the Total enzyme activity is reported as 1383.1 units.

B3: Gel filtration: recombinant human tyrosinase fractions after Sephacryl S-100 HR gel filtration chromatography (protein, UniProt P14679 19-529, looked up)
Tyrosinase: HFPRACVSSKNLMEKECCPPWSGDRSPCGQLSGRGSCQNILLSNAPLGPQFPFTGVDDRESWPSVFYNRTCQCSGNFMGFNCGNCKFGFWGPNCTERRLLVRRNIFDLSAPEKDKFFAYLTLAKHTISSDYVIPIGTYGQMKNGSTPMFNDINIYDLFVWMHYYVSMDALLGGSEIWRDIDFAHEAPAFLPWHRLFLLRWEQEIQKLTGDENFTIPYWDWRDAEKCDICTDEYMGGQHPTNPNLLSPASFFSSWQIVCSRLEEYNSHQSLCNGTPEGPLRRNPGNHDKSRTPRLPSSADVEFCLSLTQYESGSMDKAANFSFRNTLEGFASPLTGIADASQSSMHNALHIYMNGTMSQVQGSANDPIFLLHHAFVDSIFEQWLRRHRPLQEVYPEANAPIGHNRESYMVPFIPLYRNGDFFISSKDLGYDYSYLQDSDPDSFQDYIKSYLEQASRIWSWLLGAAMVGAVLTALLAGLVSLLCRHKRKQLPEEKQPLLMEKEDYHSLYQSHL
For B3, in data set [3], the Specificity is recorded as 57.7 units/mg and the Total enzyme activity stood at 144.3 units.
